Legend:
Experiment in all cases: co-IP
[1] = target: T1, Vps27 (full-length, wild type) (yeast, UniProt P40343 1-622)
T1 sequence: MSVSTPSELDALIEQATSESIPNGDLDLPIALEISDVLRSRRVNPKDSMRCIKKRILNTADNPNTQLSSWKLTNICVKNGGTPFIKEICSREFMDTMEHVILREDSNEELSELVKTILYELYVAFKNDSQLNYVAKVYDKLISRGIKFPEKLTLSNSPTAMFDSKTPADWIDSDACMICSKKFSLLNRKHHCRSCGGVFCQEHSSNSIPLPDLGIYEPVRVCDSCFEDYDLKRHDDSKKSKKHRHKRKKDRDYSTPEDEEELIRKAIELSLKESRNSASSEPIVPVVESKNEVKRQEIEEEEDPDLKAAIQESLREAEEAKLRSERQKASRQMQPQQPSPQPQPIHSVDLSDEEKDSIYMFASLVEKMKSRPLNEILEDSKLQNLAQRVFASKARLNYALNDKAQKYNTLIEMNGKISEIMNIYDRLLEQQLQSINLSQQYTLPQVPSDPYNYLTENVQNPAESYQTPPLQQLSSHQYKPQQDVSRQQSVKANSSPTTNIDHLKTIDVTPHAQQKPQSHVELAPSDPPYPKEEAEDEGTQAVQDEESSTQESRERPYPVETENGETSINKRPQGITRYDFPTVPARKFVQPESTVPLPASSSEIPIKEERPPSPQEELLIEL

[2] = target: T2, Vps27 truncated at residue 617 (yeast, UniProt P40343 1-617)
T2 sequence: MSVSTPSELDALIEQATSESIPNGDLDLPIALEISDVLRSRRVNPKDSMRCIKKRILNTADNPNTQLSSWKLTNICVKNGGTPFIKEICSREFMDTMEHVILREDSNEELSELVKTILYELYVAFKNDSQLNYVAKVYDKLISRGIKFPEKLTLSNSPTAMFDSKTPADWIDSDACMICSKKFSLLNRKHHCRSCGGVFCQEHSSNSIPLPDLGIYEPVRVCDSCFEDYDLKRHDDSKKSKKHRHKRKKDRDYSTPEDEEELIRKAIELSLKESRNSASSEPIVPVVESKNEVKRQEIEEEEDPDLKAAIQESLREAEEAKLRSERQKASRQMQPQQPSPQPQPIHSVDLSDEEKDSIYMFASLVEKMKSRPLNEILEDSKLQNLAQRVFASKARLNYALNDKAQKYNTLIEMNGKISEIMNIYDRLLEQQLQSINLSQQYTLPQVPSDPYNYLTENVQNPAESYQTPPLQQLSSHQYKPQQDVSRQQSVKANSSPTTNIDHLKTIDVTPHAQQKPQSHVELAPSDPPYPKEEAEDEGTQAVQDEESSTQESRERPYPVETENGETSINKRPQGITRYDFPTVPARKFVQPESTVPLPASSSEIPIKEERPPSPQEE

[3] = target: T3, Vps27 truncated at residue 579 (yeast, UniProt P40343 1-579)
T3 sequence: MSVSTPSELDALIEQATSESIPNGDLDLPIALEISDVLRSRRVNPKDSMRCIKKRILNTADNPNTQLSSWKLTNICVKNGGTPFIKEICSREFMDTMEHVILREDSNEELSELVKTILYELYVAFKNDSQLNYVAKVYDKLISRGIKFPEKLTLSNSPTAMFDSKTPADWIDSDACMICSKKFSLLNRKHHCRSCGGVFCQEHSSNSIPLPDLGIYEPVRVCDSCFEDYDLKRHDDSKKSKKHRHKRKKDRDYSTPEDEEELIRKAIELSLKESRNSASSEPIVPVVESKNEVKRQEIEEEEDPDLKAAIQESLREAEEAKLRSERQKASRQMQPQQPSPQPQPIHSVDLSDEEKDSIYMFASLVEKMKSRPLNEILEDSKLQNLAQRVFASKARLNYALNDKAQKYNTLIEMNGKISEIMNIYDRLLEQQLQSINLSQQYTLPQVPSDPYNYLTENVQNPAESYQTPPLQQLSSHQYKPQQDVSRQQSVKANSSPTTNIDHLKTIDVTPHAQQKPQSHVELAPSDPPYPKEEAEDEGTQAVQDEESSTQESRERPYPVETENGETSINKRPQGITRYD

[4] = target: T4, Vps27 truncated at residue 524 (yeast, UniProt P40343 1-524)
T4 sequence: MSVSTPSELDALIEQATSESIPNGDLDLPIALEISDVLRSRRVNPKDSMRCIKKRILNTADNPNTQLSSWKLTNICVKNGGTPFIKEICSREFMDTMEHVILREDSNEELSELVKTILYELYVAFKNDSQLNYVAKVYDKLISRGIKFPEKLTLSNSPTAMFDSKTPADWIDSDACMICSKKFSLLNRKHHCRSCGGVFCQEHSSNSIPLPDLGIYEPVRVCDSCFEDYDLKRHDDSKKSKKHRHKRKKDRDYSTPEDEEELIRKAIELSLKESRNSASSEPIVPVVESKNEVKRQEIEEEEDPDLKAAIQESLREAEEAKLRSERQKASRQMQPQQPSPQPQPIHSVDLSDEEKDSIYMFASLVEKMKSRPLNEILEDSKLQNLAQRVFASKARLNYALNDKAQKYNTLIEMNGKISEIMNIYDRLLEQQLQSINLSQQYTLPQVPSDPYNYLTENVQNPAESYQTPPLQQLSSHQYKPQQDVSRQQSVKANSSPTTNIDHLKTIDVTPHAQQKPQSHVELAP

[5] = target: T5, Vps27 truncated at residue 485 (yeast, UniProt P40343 1-485)
T5 sequence: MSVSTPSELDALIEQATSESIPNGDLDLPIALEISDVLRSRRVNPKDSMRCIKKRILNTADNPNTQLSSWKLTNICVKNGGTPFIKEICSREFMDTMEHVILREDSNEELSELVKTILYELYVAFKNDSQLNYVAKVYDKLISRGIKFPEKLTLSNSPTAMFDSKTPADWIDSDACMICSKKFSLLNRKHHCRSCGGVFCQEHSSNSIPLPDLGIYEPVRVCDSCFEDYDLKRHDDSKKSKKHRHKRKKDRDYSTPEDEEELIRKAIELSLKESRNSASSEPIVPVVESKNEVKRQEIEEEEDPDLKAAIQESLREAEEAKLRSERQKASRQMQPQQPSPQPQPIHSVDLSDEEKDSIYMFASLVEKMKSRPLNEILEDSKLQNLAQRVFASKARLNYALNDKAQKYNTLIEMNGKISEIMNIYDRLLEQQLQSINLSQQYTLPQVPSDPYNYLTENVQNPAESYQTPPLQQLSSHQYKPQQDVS

percent of Vps23 co-immunoprecipitated [1]: ~10%
percent of Vps23 co-immunoprecipitated [2]: ~10%
percent of Vps23 co-immunoprecipitated [3]: ~10%
percent of Vps23 co-immunoprecipitated [4]: ~10%
percent of Vps23 co-immunoprecipitated [5]: ~10%
B1: Vps23-HA (natural protein)
chain: MSANGKISVPEAVVNWLFKVIQPIYNDGRTTFHDSLALLDNFHSLRPRTRVFTHSDGTPQLLLSIYGTISTGEDGSSPHSIPVIMWVPSMYPVKPPFISINLENFDMNTISSSLPIQEYIDSNGWIALPILHCWDPAAMNLIMVVQELMSLLHEPPQDQAPSLPPKPNTQLQQEQNTPPLPPKPKSPHLKPPLPPPPPPQPASNALDLMDMDNTDISPTNHHEMLQNLQTVVNELYREDVDYVADKILTRQTVMQESIARFHEIIAIDKNHLRAVEQAIEQTMHSLNAQIDVLTANRAKVQQFSSTSHVDDEDVNSIAVAKTDGLNQLYNLVAQDYALTDTIECLSRMLHRGTIPLDTFVKQGRELARQQFLVRWHIQRITSPLS

Source: publication PMC2173515 (The Journal of Cell Biology, 2003)
